Among the data in the supplement of paper PMC10567573 are protein stability index values, retold here.

B1: C10orf62 (parent)
chain: GHSHHSHHGHPSHQSHSLPNRRH
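Further: lentivirally expressed fusions sorted by FACS into six bins by GFP to DsRed ratio, PSI derived from sequencing read proportions per bin multiplied by bin number.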

Variants of B1 are the subject of the data set. Nature of the data set: protein stability index of a GFP-peptide fusion (GPS, HEK-293T) (PSI 1-6); higher = more stable. The conditions noted are these: c terminus: native.
On to GHSHHSHHGHYSHQSHSLPNRRH [P11Y], for which the protein stability index is 2.47.
For the variant GHSHHSHHGHMSHQSHSLPNRRH [P11M], the protein stability index came out at 1.92.
For the variant GHSHHSHHGHSSHQSHSLPNRRH [P11S], the protein stability index was 2.71.
GHSHHSHHGHESHQSHSLPNRRH [P11E]: the protein stability index came out at 2.1.
Next, GHSHHSHHGRPSHQSHSLPNRRH [H10R]: 3.48; GHSHHSHHGMPSHQSHSLPNRRH [H10M]: 2.98.
Next, GHSHHSHHGYPSHQSHSLPNRRH [H10Y]: 3.67; GHSHHSHHGSPSHQSHSLPNRRH [H10S]: 2.08.
Regarding GHSHHSHHGGPSHQSHSLPNRRH [H10G], the protein stability index worked out at 2.34.
Next, GHSHHSHHGCPSHQSHSLPNRRH [H10C]: 3.79.
Turning to GHSHHSHHGIPSHQSHSLPNRRH [H10I], the protein stability index worked out at 2.96.
Next, GHSHHSHHGAPSHQSHSLPNRRH [H10A]: 3.41; GHSHHSHHGWPSHQSHSLPNRRH [H10W]: 3.14; GHSHHSHHGEPSHQSHSLPNRRH [H10E]: 1.48.
Regarding GHSHHSHHGDPSHQSHSLPNRRH [H10D], the protein stability index was determined as 1.74.
Next, GHSHHSHHGKPSHQSHSLPNRRH [H10K]: 2.86; GHSHHSHHGPPSHQSHSLPNRRH [H10P]: 2.43; GHSHHSHHGQPSHQSHSLPNRRH [H10Q]: 3.81.
Regarding GHSHHSHHGTPSHQSHSLPNRRH [H10T], the protein stability index amounted to 2.53.
Take GHSHHSHHGHPSHYSHSLPNRRH [Q14Y]: the protein stability index came to 1.85.
Next, GHSHHSHHGHPSHISHSLPNRRH [Q14I]: 2.95.
On to GHSHHSHHGHPSHSSHSLPNRRH [Q14S], for which the protein stability index was found to be 2.26.
Consider GHSHHSHHGHPSHTSHSLPNRRH [Q14T], for which the protein stability index turned out to be 3.78.
Consider GHSHHSHHGHPSHFSHSLPNRRH [Q14F], for which the protein stability index was found to be 2.56.
Regarding GHSHHSHHGHPSHPSHSLPNRRH [Q14P], the protein stability index came to 2.67.
Next, GHSHHSHHGHPSHWSHSLPNRRH [Q14W]: 3.44.
Next, GHSHHSHHGHPSHRSHSLPNRRH [Q14R]: 3.61; GHSHHSHHGHPSHMSHSLPNRRH [Q14M]: 4.32.
In the case of GHSHHSHHGHPSHDSHSLPNRRH [Q14D], the protein stability index came out at 3.4.
GHSHHSHHGHPSHKSHSLPNRRH [Q14K]: the protein stability index worked out at 2.75.
As to GHSHHSHHGHPSHASHSLPNRRH [Q14A], the protein stability index came to 3.39.
Next, GHSHHSHHGHPSHNSHSLPNRRH [Q14N]: 2.92.
Next, GHSHHSHHGHPSHGSHSLPNRRH [Q14G]: 2.82; GHSHHSHHGHPSHHSHSLPNRRH [Q14H]: 3.42; GHSHHSHHGHPSHESHSLPNRRH [Q14E]: 2.
Next, GHSHHSHHGHPSHVSHSLPNRRH [Q14V]: 2.08.
GHSHHVHHGHPSHQSHSLPNRRH [S6V]: the protein stability index turned out to be 2.71.
Next, GHSHHQHHGHPSHQSHSLPNRRH [S6Q]: 3.1; GHSHHYHHGHPSHQSHSLPNRRH [S6Y]: 3.47.
Turning to GHSHHTHHGHPSHQSHSLPNRRH [S6T], the protein stability index worked out at 3.3.
Next, GHSHHHHHGHPSHQSHSLPNRRH [S6H]: 4.03; GHSHHFHHGHPSHQSHSLPNRRH [S6F]: 2.95; GHSHHEHHGHPSHQSHSLPNRRH [S6E]: 1.84.
Take GHSHHLHHGHPSHQSHSLPNRRH [S6L]: the protein stability index was found to be 3.37.
For the variant GHSHHMHHGHPSHQSHSLPNRRH [S6M], the protein stability index worked out at 3.95.
As for GHSHHKHHGHPSHQSHSLPNRRH [S6K], the protein stability index was determined as 1.55.
Next, GHSHHRHHGHPSHQSHSLPNRRH [S6R]: 2.98; GHSHHNHHGHPSHQSHSLPNRRH [S6N]: 3.28.
For the variant GHSHHWHHGHPSHQSHSLPNRRH [S6W], the protein stability index was 4.
Next, GHSHHIHHGHPSHQSHSLPNRRH [S6I]: 2.27; GHSHHPHHGHPSHQSHSLPNRRH [S6P]: 2.12.
GHSHHAHHGHPSHQSHSLPNRRH [S6A]: the protein stability index worked out at 4.79.
Next, GHSHHDHHGHPSHQSHSLPNRRH [S6D]: 2.08.
GHSHHSHHGHPSHQSDSLPNRRH [H16D]: the protein stability index was found to be 3.54.
As to GHSHHSHHGHPSHQSSSLPNRRH [H16S], the protein stability index was 3.
Consider GHSHHSHHGHPSHQSCSLPNRRH [H16C], for which the protein stability index amounted to 2.19.
GHSHHSHHGHPSHQSFSLPNRRH [H16F]: the protein stability index worked out at 3.84.
Next, GHSHHSHHGHPSHQSASLPNRRH [H16A]: 2.55.
For GHSHHSHHGHPSHQSMSLPNRRH [H16M], the protein stability index worked out at 2.32.
Next, GHSHHSHHGHPSHQSESLPNRRH [H16E]: 1.78; GHSHHSHHGHPSHQSVSLPNRRH [H16V]: 2.2; GHSHHSHHGHPSHQSWSLPNRRH [H16W]: 3.05.
Next, GHSHHSHHGHPSHQSTSLPNRRH [H16T]: 2.08; GHSHHSHHGHPSHQSGSLPNRRH [H16G]: 3.63; GHSHHSHHGHPSHQSPSLPNRRH [H16P]: 2.52.
Next, GHSHHSHHGHPSHQSISLPNRRH [H16I]: 3.15.
For the variant GHSHHSHHGHPSHQWHSLPNRRH [S15W], the protein stability index was 2.92.
Turning to GHSHHSHHGHPSHQPHSLPNRRH [S15P], the protein stability index is 3.1.
As for GHSHHSHHGHPSHQNHSLPNRRH [S15N], the protein stability index stood at 3.44.
Next, GHSHHSHHGHPSHQFHSLPNRRH [S15F]: 2.19.
Next, GHSHHSHHGHPSHQDHSLPNRRH [S15D]: 2.07.
GHSHHSHHGHPSHQEHSLPNRRH [S15E]: the protein stability index is 3.39.
Next, GHSHHSHHGHPSHQGHSLPNRRH [S15G]: 3.98; GHSHHSHHGHPSHQYHSLPNRRH [S15Y]: 2.6.
For GHSHHSHHGHPSHQVHSLPNRRH [S15V], the protein stability index came to 3.59.
As to GHSHHSHHGHPSHQHHSLPNRRH [S15H], the protein stability index came to 2.48.
Next, GHSHHSHHGHPSHQTHSLPNRRH [S15T]: 2.91; GHSHHSHHGHPSHQRHSLPNRRH [S15R]: 3.2; GHSHHSHHGHPSHQKHSLPNRRH [S15K]: 3.18.
For GHSHHSHHGHPSHQQHSLPNRRH [S15Q], the protein stability index was 2.95.
Regarding GHSHHSHHGHPSHQAHSLPNRRH [S15A], the protein stability index is 3.68.
Next, GHSHHSHHGHPSHQMHSLPNRRH [S15M]: 2.74.
As for GHSHPSHHGHPSHQSHSLPNRRH [H5P], the protein stability index came to 4.04.
Next, GHSHSSHHGHPSHQSHSLPNRRH [H5S]: 2.38; GHSHKSHHGHPSHQSHSLPNRRH [H5K]: 1.69; GHSHYSHHGHPSHQSHSLPNRRH [H5Y]: 3.13.
With GHSHMSHHGHPSHQSHSLPNRRH [H5M], the protein stability index was 2.23.
On to GHSHISHHGHPSHQSHSLPNRRH [H5I], for which the protein stability index amounted to 2.64.
Next, GHSHFSHHGHPSHQSHSLPNRRH [H5F]: 3.95; GHSHLSHHGHPSHQSHSLPNRRH [H5L]: 2.65; GHSHTSHHGHPSHQSHSLPNRRH [H5T]: 3.1.
Take GHSHWSHHGHPSHQSHSLPNRRH [H5W]: the protein stability index is 2.3.
Next, GHSHNSHHGHPSHQSHSLPNRRH [H5N]: 2.35; GHSHDSHHGHPSHQSHSLPNRRH [H5D]: 3.54; GHSHESHHGHPSHQSHSLPNRRH [H5E]: 2.3.
Next, GHSHGSHHGHPSHQSHSLPNRRH [H5G]: 2.33.
Next, GHSHCSHHGHPSHQSHSLPNRRH [H5C]: 3.11.
